We go through 18 sequences from the DeepSol protein solubility set.

A short description of the data set: soluble on expression in E. coli; label from the status in PepcDB or PDB records.
As to “MSLALELRQQLKLSQQLVMTPQLQQAIRLLQLSRLELVETVQQELLENPFLEEGMDEGAASSASEASSRKDESAPEAYDRELSRNADWEDYLGEFASSSRQAQVRETELPEEMTAFEARYSARPSLEGHLMWQLRLSRLTEDQKGIGETIIGNIGSSGYLQASVEDIAEMCGADASEVIPVLHAVQRFDPVGVASRTPQECLLIQIEMLGYDRDRVLVELVRDHLEDLETRRYKPLLRKFKLDMDDLKEYLDIIQSLDPMPGSSFGGSDPMFVSPDVFVYKYDDEFVIVLNDDGLPHLQLSSLYDQSLAGVTGKDKDFVQEKVRSASWLIKSLYQRQRTLYKVVESIIKYQRGFFEDGVTRLRPLILKDIADDISMHESTVSRITTNKFVATPHGVFELKFFFNSALELDDGSQVGSESVKALIKKLIGEENPKEPLSDERIGEILKEQLQVNIARRTVAKYRTAMNIPSSSKRKEVFEGHHHHHH”, the “soluble on expression in E. coli” value was “soluble”.
Under “MLKYQQIATEIETYIEEHQLQQGDKLPVLETLMAQFEVSKSTITKSLELLEQKGAIFQVRGSGIFVRKHKRKGYISLLSNQGFKKDLEDFNVTSKVIELDVRKPTPEAAENLNIGMDEDIYYVKRVRYINGQTLCYEESYYTKSIVTYLNNEIVSHSIFHYIREGLGLKIGFSDLFLHVGQLNEEEAEYLGLEAGLPKLYIESIFHLTNGQPFDYSKISYNYEQSQFVVQANSFLL” stands “soluble”.
Under “MGSDKIHHHHHHMKIGFIGTGNMGTILIESFIESKAADPSNMTITNRTIEKALHIKNRYNSINVTESLEKLVSENEMIFICVKPLDIYPLLARALPYLRKDHILISITSPVQTEQLEQYVPCQVARVIPSITNRALAGVSLVTFGTSCGESAKAKINELMQHISHPLQIESDITRVASDIVSCGPAFMSYLIQRFIDAAVSETSVSKQDAILMCKEMLVGMGKLLETELYTLPALQEKVCVKGGVTGEGIKALESGVQDMFHRVFQNTHMKYEEDISAVKKQFHV” stands “not soluble”; under “MKEDEVNRCQIQNWYPRFKSLTIKTKFHKLPESFINYLIDDSGPFLLPHSVTNEDAMPNRVHNFEEEDDFQVPEEASDDEPLNRPSFPELEIEIRESIETLGGTIIPKLNWSSPKDAAWISPSQNLSCTCFNEIALLFRSSDSLTHDLFNAYDSCSDKVSSRPESFYLALRKWYPSLKPEMEFRCFVKSNELVGICQREVTTFYPVLLNEKDLLKGLIEEFFDDKIRFEFESENYTFDVYVTKERRVKLIDFNTWCGSTLPLMYTWEELEKIHGECDELELRIVESRLSVLPGLKTAVPYDYLDVSAGSGWAQVLKIVEEEFQKDDQSSDEVA”, “soluble”; under “MTELEAAMGMIIDVFSRYSGSEGSTQTLTKGELKVLMEKELPGFLQSGKDKDAVDKLLKDLDANGDAQVDFSEFIVFVAAITSASHKYFEKTGLK”, “soluble”.
Turning to “MSLAPPEGNPAAGKVAAGLCRTCHGLNGFARIPIAPHIGGEHPSYIRHQLEAFRSGTRQHEIMSVVAASLSDAQIADLSAWFAMQKIHVALKPGVDPHAAPEACALCHGADGVAVLEDAPNLAGENSVYLETQLKAFRTGKRTHEIMSPIAAELTDAEIRAAADWYAAVQLEIDEGHHHHHH”, the “soluble on expression in E. coli” value was “not soluble”.
Consider “MAHHHHHHMSFFRMKRRLNFVVKRGIEELWENSFLDNNVDMKKIEYSKTGDAWPCVLLRKKSFEDLHKLYYICLKEKNKLLGEQYFHLQNSTKMLQHGRLKKVKLTMKRILTVLSRRAIHDQCLRAKDMLKKQEEREFYEIQKFKLNEQLLCLKHKMNILKKYNSFSLEQISLTFSIKKIENKIQQIDIILNPLRKETMYLLIPHFKYQRKYSDLPGFISWKKQNIIALRNNMSKLHRLY”, for which the “soluble on expression in E. coli” value is listed as “not soluble”.
Consider “MLYDKSLEKDNCGFGLIAHIEGEPSHKVVRTAIHALARMQHRGAILADGKTGDGCGLLLQKPDRFFRIVAEERGWRLAKNYAVGMIFLNKDPELAAASRHIVEEELQQETLSIVGWRDVPTNEGVLGEIALSSLPRIEQIFVNAPAGWRPRDMERRLFIARRRIEKRLQDDKDFYVCSLSNLVNIYKGLCMPADLPRFYLDLADLRLESAICLFHQRFSTNTVPRWPLAQPFRYLAHNGEINTITGNRQWARARTYKFQTPLIPDLQSAAPFVNETGSDSSSLDNMLELLLAGGMDIIRAMRLLVPPAWQNNPDMDQDLRAFFDFNSMHMEPWDGPAGIVMSDGRFAACNLDRNGLRPARYVITKDKLITCASEVGIWDYQPDEVVEKGRVGPGELMVIDTRGGRILHSAETDDDLKSRHPYKEWMEKNVRRLVPFEELPDEEVGSRELDDDLLASYQKQFNYSAEELDSVIRVLGENGQEAVGSMGDDTPFAVLSSQPRIIYDYFRQQFAQVTNPPIDPLREAHVMSLATSIGREMNVFCEAEGQAHRLSFKSPILLYSDFKQLTTMKEEHYRADRLDITFDVTETTLNATVKALCDKAEQMVRNGTVLLVLSDRNIGKNRLPVPAPMAVGAVQTRLVEQSLRCDANIIVETGSARDPHHFAVLLGFGATAIYPYLAYETLGRLIDTQAIAKNYRTVMQNYRNGINKGLYKIMSKMGISTIASYRCSKLFEAVGLHDDVVNLCFQGVVSRIGGASFDDFQQDLLNLSKRAWLARKPISPGGLLKYVHGGEYHAYNPDVVRTLQQAVQSGEYSDYQEYAKLVNERPASTLRDLLAIHPDGEAVTIDEVEPASELFKRFDTAAMSIGALSPEAHEALAEAMNSLGGNSNSGEGGEDPARYGTNKVSRIKQVASGRFGVTPAYLVNADVIQIKVAQGAKPGEGGQLPGDKVTPYIAKLRYSVPGVTLISPPPHHDIYSIEDLAQLIFDLKQVNPKAMISVKLVSEPGVGTIATGVAKAYADLITIAGYDGGTGASPLSSVKYAGCPWELGLVETQQALVANGLRHKIRLQVDGGLKTGVDIIKAAILGAESFGFGTGPMVALGCKYLRICHLNNCATGVATQDDKLRKNHYHGLPFKVTNYFEFIAREVRELMASLGVTRLVDLIGRTDLLKELEGFTAKQQKLALSRLLETAEPHPGKALYCTENNPPFDNGVLNAQLLQQAKPFVDARQSKTFWFDIRNTDRSVGASLSGYIAQTHGDQGLASDPIKAHFSGTAGQSFGVWNAGGVELYLTGDANDYVGKGMAGGLIAIRPPVGSAFLSHKASIIGNTCLYGATGGRLYAAGRAGERFGVRNSGAITVVEGIGDNGCEYMTGGIVCVLGKTGVNFGAGMTGGFAYVLDEDGEFRKRVNPELVEVLDVDSLAIHEEHLRGLITEHVQHTGSQRGEEILSRWSSFSTQFALVKPKSSDVKALLGHRSRSAAELRVQAQ”, for which the “soluble on expression in E. coli” value is on record as “not soluble”.
Under “AVREEIAGALYLGHSEGVVEKEDRDRILGALDLAERTVEEIMLHRSNIVMLDADAEPETILEHCLQSPHTRLPVYRGEPENIIGVVHAKDLFRAMYAQVGGSEGHTARLKDFDISRVANAPYFVPETTTLDDQMRAFLRMRSHFALVVDEYGSLRGLITLEDILEEIVGEIT” stands “not soluble”; under “ERTRAEQKLAETNVFLNSVVDGVAEPMVVVGLDRRVIMTNRAARDFFQISDVGSDEACHRLIHHRDTPCVREEGMQCPLLDVRTAKRPVIATQEHRDRSGDKRVVEVMTSPLLGSDGVAIGIIEAFRDIT”, “not soluble”; under “MSLFVSLSEKKKFLTWLVNTAPFGRREVLWILNYLLTHDAILNNVHFVENVEKTDRGIRVVADGLGKEPLLLFIQAQEFTDPEQIFHEIRMNWRKALYLECVFPEAWQTSQYLSVLEDNPFAPWNEQVDQEVARAIDQYFKQEEQTQRMALLKAQIDDALETGNKEAFLELSDELNRLKQQEGHHHHHH”, “soluble”.
In the case of “MSHHHHHHAGIFTFEEPVTHVSESIGIMEVKVLRTSGARGNVIVPYKTIEGTARGGGEDFEDTCGELEFQNDEIVKIITIRIFDREEYEKECSFSLVLEEPKWIRRGMKGGFTITEEYDDKQPLTSKEEEERRIAEMGRPILGEHTKLEVIIEESYEFKSTVD”, the “soluble on expression in E. coli” value was “soluble”.
For the sequence “MAHHHHHHMSTYVPKPSRDNVYRFFFTEGVIACKKDRMGTWTGTLGGNTFTVPCIQVMQLMRSLKSRNLIKEQYAWRHYYWTLNDEGIAYMRSYLHLAPSAMPNTQKPSSVNFEKVTEGRGRGRGRGGRGRGEGRGRGRGEGRGRGRGRGFGGERMNYRAAAATSDGEAAPAPAAE”, the “soluble on expression in E. coli” value is “soluble”.
On to “MAHHHHHHMSQSTSLAYATLFHPSRDSATIQHSAARASAAHQQQVQQSPSITRATDGATYTAEGIAVASLSSLDTWTGFLSSQWAETVKMQLSMPSNAAPVISPSGADLISSLHSIVSRQNKVVAQPQEKLVAQRAKEEKDWEAKKQLSQSTSAEGMPGSFKNTKDEAVSSVDDNVADNAAENTQVCVLLAHLLEHARFLWARAVSQHFRVAQVRKSSSSKDTRSPKKVTADINAEAAMEEERVGLPPISLLFRCLVDGINSEEARQAIVTAGVLPASAWDSGVLGVDQLGILTVFERHVQALRTFPGIVPPLEALREYFAELHPQQLSKYYPSGALDSTLELAEAQMDAFLRFGDETEQMAALLRAGLHPSVRRLLYARALQVPLTVTDGKPMFLAQGELMTNHLRHGLARYLTCSSRQARDKVKRRFHHRYSSSKEENRVRLLQRLALDDMFISVGNSDKYFVYTDDVEVLSTAMVVDHSLPVPKMVQALKQLGRPRDLLDSYVTYLQYPETNLVQQKALPCGVAPLEGFALLLGALCNVTSDTVEQYELAAAIVAQLWSRLQGPTPELFQCCLIFESLVQQLALPAVLHATRNLQYPPLVLAMRWMLTGFADLLDAFEVLSFWDLVLSYHMREMHRRSPLSLPTGLANAAPHDTSTPCALWLLPMYAAAIFVMRAPLVEACRTAAEVDVVFATGHQLRTRSLLQGLLFG”, for which the “soluble on expression in E. coli” value is “not soluble”.
Consider “MWMKDPVARPLSPTRLQPALPPEAQSVPELEEVARVLAEIPRPLKRRGSMEQAPAVALPPTHKKQYQQIISRLFHRHGGPGPGGRSQSCPPSLRDLRPGQGPLLLPHQLPFHRPAPSQSSPPEQPQSMEMRSVLRKAGSPRKARRARLNPLVLLLDAALTGELEVVQQAVKEMNDPSQPNEEGITALHNAICGANYSIVDFLITAGANVNSPDSHGWTPLHCAASCNDTVICMALVQHGAAIFATTLSDGATAFEKCDPYREGYADCATYLADVEQSMGLMNSGAVYALWDYSAEFGDELSFREGESVTVLRRDGPEETDWWWAALHGQEGYVPRNYFGLFPRVKPQRSKV”, for which the “soluble on expression in E. coli” value is given as “soluble”.
“MAQSVPPGDIQTQPGTKIVFNAPYDDKHTYHIKVINSSARRIGYGIKTTNMKRLGVDPPCGVLDPKEAVLLAVSCDAFAFGQEDTNNDRITVEWTNTPDGAAKQFRREWFQGDGMARRKNLPIEYNP”: the “soluble on expression in E. coli” value is reported as “not soluble”.
Consider “MAHHHHHHMTNVVECTFKTPPETAKAPDNAIIWNSFQYCDEKGWYSLTNHDEIMLRPTAFSDGRIKFLPQLEKIPEEFESVLCGKYDAKAWGKDDCNIVIEGDKDVHISLPGLQEKINYNHRERFPTFLKNWKIIVGMLNEHITVIRINTETAIIVSINEKSNVTVKCVNFNNGFLCVNPHTNLAIAYGDFALSELKKCELVPNITHEGAEWGFFVHLFKWGHIIIPKDIEIKLPSPGLKLIGKKIDTVAIISLPPNIYIHVKIDGPKCIRKLEYGQDYSITAIKSSESDIDIYLLFDGQLIKYEFSFDTRLNKVGKGRSINYAKLKCTNKSKEVTSFVFQATANSKLLLDSNCPTDNMGHLLCNQTISVFDAETGEYLSHPQGLQLTEVFNTLSYPPEKE”, for which the “soluble on expression in E. coli” value is listed as “not soluble”.
Next, “MSQVTEQSVRFQTALASIKLIQASAVLDLTEDDFDFLTSNKVWIATDRSRARRCVEACVYGTLDFVGYPRFPAPVEFIAAVIAYYVHPVNIQTACLIMEGAEFTENIINGVERPVKAAELFAFTLRVRAGNTDVLTDAEENVRQKLRAEGVM”: “soluble”.
